Residue numbers refer to the chain shown, from its start.

The record followed here is US20240317851A1 (LANOVA MEDICINES, published 2024).

The labels stand for the following.
T1: human Claudin 3 (human, UniProt O15551 1-220)
T1 construct: whole, on cells; also called CLDN3
T1 sequence (looked up): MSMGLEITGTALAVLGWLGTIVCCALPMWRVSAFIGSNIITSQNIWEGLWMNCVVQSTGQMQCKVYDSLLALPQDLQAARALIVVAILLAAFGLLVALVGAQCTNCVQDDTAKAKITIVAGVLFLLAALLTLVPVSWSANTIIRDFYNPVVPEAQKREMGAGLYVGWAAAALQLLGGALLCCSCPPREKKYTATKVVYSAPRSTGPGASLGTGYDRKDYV

T2: human Claudin 9 (human, UniProt O95484 1-217)
T2 construct: whole, on cells; also called CLDN9; CLND9
T2 sequence (looked up): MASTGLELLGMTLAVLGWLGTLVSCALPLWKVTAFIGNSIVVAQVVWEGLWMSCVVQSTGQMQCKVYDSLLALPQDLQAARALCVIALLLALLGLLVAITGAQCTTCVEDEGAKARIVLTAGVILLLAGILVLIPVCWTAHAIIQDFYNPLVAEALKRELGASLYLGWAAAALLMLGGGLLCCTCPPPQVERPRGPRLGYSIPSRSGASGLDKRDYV

T3: human Claudin 6 (human, UniProt P56747 1-220)
T3 construct: whole, on cells; also called CLDN6
T3 sequence (looked up): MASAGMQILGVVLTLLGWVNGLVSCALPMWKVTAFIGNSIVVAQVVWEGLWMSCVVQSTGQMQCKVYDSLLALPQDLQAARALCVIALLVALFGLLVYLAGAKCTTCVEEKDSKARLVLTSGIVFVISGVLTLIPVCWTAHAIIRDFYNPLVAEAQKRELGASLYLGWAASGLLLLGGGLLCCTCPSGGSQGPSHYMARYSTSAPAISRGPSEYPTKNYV

B1: 97-C10E1-2-P1.z3 (antibody, V domains shown)
VH: QVQLVQSGAEVKKPGASVKVSCKASGYAFTGYTMNWVRQAPGQGLEWIGLSNPYNAGTIYNQKFKGRVTMTVDKSTSTVYMELSSLRSEDTAVYYCARNYYYGSSYAYYYAMDYWGQGTTVTVSS
VL: DAQMTQSPSSLSASVGDRVTITCRSSTGAVTTSNYANWVQQKPGKAPKLLIGGTNNRAPGVPSRFSGSGSGTDATLTISSLQPEDFATYYCALWYSNHWVFGGGTKVEIK
B2: 97-C10E1-2-P1.z6 (antibody, V domains shown)
VH: B1 VH with V5Q, G44N, M70L, S84L
VL: EAVMTQSPATLSVSPGERATLSCRSSTGAVTTSNYANWVQQKPGQAPRLLIGGTNNRAPGIPARFSGSGSGDEATLTISSLQSEDFAVYFCALWYSNHWVFGGGTKVEIK
B3: 97-C10E1-2-P1.z10 (antibody, V domains shown)
VH: B1 VH with V5Q, G44N, M70L, S84L
VL: DIVVTQSPSSLSTSVGDRVTITCRSSTGAVTTSNYANWVQEKPGKAFKGLIGGTNNRAPGVPARFSGSLSGDDAALTISSAQPEDFATYFCALWYSNHWVFGGGTKVEIK
B4: 97-C10E1-2-P1.z5 (antibody, V domains shown)
VH: B1 VH
VL: B3 VL
notes: also called candidate antibody
B5: 97-C10E1-2-P1.z11 (antibody, V domains shown)
VH: B1 VH with V5Q, V18M, V20I, G44N, V68A, M70L, V79A, S84L
VL: B2 VL
B6: 97-C10E1-2-P1.z2 (antibody, V domains shown)
VH: B1 VH
VL: B2 VL with M4V, Q41E, P47F, L49G, G69L
B7: 97-C10E1-2-P1.z8 (antibody, V domains shown)
VH: B1 VH with V5Q, G44N, M70L, S84L
VL: B1 VL
B8: 97-C10E1-2-P1.z1 (antibody, V domains shown)
VH: B1 VH
VL: B2 VL
B9: 97-C10E1-2-P1.z12 (antibody, V domains shown)
VH: B1 VH with V5Q, V18M, V20I, G44N, V68A, M70L, V79A, S84L
VL: B2 VL with M4V, Q41E, P47F, L49G, G69L
B10: 97-C10E1-2-P1.z13 (antibody, V domains shown)
VH: B1 VH with V5Q, V18M, V20I, G44N, V68A, M70L, V79A, S84L
VL: B1 VL
B11: 97-C10E1-2-P1.z15 (antibody, V domains shown)
VH: B1 VH with V5Q, V18M, V20I, G44N, V68A, M70L, V79A, S84L
VL: B3 VL
B12: z5-LM-D01 (antibody, V domains shown)
VH: B1 VH
VL: B3 VL
modifications: LM-D01 conjugated to the antibody (structure only as a drawing); residues and drug load not stated
B13: z5-DXD (antibody, V domains shown)
VH: B1 VH
VL: B3 VL
modifications: DXD conjugated to the antibody; residues and drug load not stated
B14: z5-LM-D03 (antibody, V domains shown)
VH: B1 VH
VL: B3 VL
modifications: LM-D03 conjugated to the antibody (structure only as a drawing); residues and drug load not stated

The target in one assay is T1, human Claudin 3. The assay can be described thus: flow cytometry, CHOK1/H_CLDN3 cells. On the procedure: (§1) In this example, cell-based binding of hu Abs on human CLDN3 expressing cells were assessed using flow cytometry.
(§2) Briefly, the CHOK1/H_CLDN3 cells were incubated with hu-Abs (from 100 nM, 6 folds dilution, 8 points). After incubation at 4° C. for 60 minutes. Cells were pelleted and washed twice with 2% FBS/PBS buffer, and stained with fluorescent conjugated secondary antibody at 4° C. for 30 minutes. After that the cells were washed twice and resuspended in 80 μL of 2% FBS/PBS buffer. Fluorescent signal of binding was detected using Agilent. The EC50 was calculated using the GraphPad software.
Turning to B1, the binding result is given as “no binding (tested: 100 nM (highest concentration tested))”.
Same read-out and setting: under B2 stands “no binding (tested: 100 nM (highest concentration tested))”; under B3, “no binding (tested: 100 nM (highest concentration tested))”; under B4, “no binding (tested: 100 nM (highest concentration tested))”.
Still for that read-out and setting: under B5 stands “no binding (tested: 100 nM (highest concentration tested))”; under B6, “no binding (tested: 100 nM (highest concentration tested))”; under B7, “no binding (tested: 100 nM (highest concentration tested))”.
Same read-out and setting: under B8 stands “no binding (tested: 100 nM (highest concentration tested))”; under B9, “no binding (tested: 100 nM (highest concentration tested))”.
Regarding B10, the binding result is “no binding (tested: 100 nM (highest concentration tested))”.
Turning to B11, the binding result is listed as “no binding (tested: 100 nM (highest concentration tested))”.

Another assay addresses T2, human Claudin 9. Description: flow cytometry, HEK293/H_CLDN9 cells, Ab titrated from 100 nM. On the procedure:
In this example, cell-based binding of hu Abs on human CLDN9 expressing cells were assessed using flow cytometry.
Briefly, the HEK293/H_CLDN9 cells were incubated with hu-Abs (from 100 nM, 6 folds dilution, 8 points). After incubation at 4° C. for 60 minutes. Cells were pelleted and washed twice with 2% FBS/PBS buffer, and stained with fluorescent conjugated secondary antibody at 4° C. for 30 minutes. After that the cells were washed twice and resuspended in 80 μL of 2% FBS/PBS buffer. Fluorescent signal of binding was detected using Agilent. The EC50 was calculated using the GraphPad software (LaJolla, CA).
For B1, the “Top MFI” value amounted to 594.
Still for that read-out and setting: with B2 the figure was 417.
On the same count and under the same terms, under B3 stands 258; under B4, 1560; under B5, 287.
Same read-out and setting: with B6 the figure was 2520; with B7, 542.
For B8, the “Top MFI” value stood at 479.
On the same count and under the same terms, with B9 the figure was 149; with B10, 315; with B11, 186.

The next assay deals with T3, human Claudin 6. Description: flow cytometry, HEK293/H_CLDN6 cells, Ab titrated from 100 nM. On the procedure:
In this example, cell-based binding of humanized antibodies (hu Abs) on human CLDN6 expressing cells were assessed using flow cytometry.
Briefly, the HEK293/H_CLDN6 cells were incubated with hu-Abs (from 100 nM, 6 folds dilution, 8 points). After incubation at 4° C. for 60 minutes. Cells were pelleted and washed twice with 2% FBS/PBS buffer, and stained with fluorescent conjugated secondary antibody at 4° C. for 30 minutes. After that the cells were washed twice and resuspended in 80 μL of 2% FBS/PBS buffer. Fluorescent signal of binding was detected using Agilent. The EC50 was calculated using the GraphPad software.
In general terms: A flow cytometer gives signals particle by particle.
Regarding B1, the “Top MFI” value is 27400.
On the same count and under the same terms, under B2 stands 32200; under B3, 121000.
Still for that read-out and setting: with B5 the figure was 31000.
Still for that read-out and setting: with B6 the figure was 207000.
For the molecule B7, the “Top MFI” value was determined as 16300.
Still for that read-out and setting: under B8 stands 45100; under B9, 107000.
As for B10, the “Top MFI” value came out at 15500.
On to B11, for which the “Top MFI” value was determined as 128000.

For a further assay, the target named is T1, human Claudin 3. Description: flow cytometry, CHOK1/H_CLDN3 cells, Ab titrated from 100 nM. On the procedure: as §1, §2
Regarding B1, the “Top MFI” value is 133.
On the same count and under the same terms, under B2 stands 139; under B3, 160; under B4, 254.
The same measure, in the same setting: with B5 the figure was 118; with B6, 247.
Same read-out and setting: with B7 the figure was 137; with B8, 136.
B9: the “Top MFI” value was 130.
Still for that read-out and setting: under B10 stands 131.
On the same count and under the same terms, with B11 the figure was 138.

In the next assay the target is T2, human Claudin 9. The assay can be described thus: flow cytometry, HEK293/H_CLDN9 cells. On the procedure:
In this example, cell-based binding of z5 toward human CLDN9 engineering expressing cells were assessed using flow cytometry.
Briefly, 2 cell lines were incubated with antibodies (from 100 nM, 6 folds dilution, 8 points) at 4° C. for 60 minutes. Cells were pelleted and washed twice with 2% FBS/PBS buffer, and stained with fluorescent conjugated secondary antibody at 4° C. for 30 minutes. After that the cells were washed twice and resuspended in 80 μL of 2% FBS/PBS buffer. Fluorescent signal of binding was detected using Agilent. The EC50 was calculated using the GraphPad software.
In the case of B1, the binding result is “no binding (tested: 100 nM (highest concentration tested))”.
On the same count and under the same terms, under B2 stands “no binding (tested: 100 nM (highest concentration tested))”.
The same measure, in the same setting: with B3 the entry was “no binding (tested: 100 nM (highest concentration tested))”.
Still for that read-out and setting: with B5 the entry was “no binding (tested: 100 nM (highest concentration tested))”; with B7, “no binding (tested: 100 nM (highest concentration tested))”.
For the molecule B8, the binding result is reported as “no binding (tested: 100 nM (highest concentration tested))”.
Still for that read-out and setting: with B9 the entry was “no binding (tested: 100 nM (highest concentration tested))”; with B10, “no binding (tested: 100 nM (highest concentration tested))”.
As to B11, the binding result was “no binding (tested: 100 nM (highest concentration tested))”.

For the next assay, the target named is T3, human Claudin 6. Description: cell-based or functional assay.
As for B12, the “Min cell viability, OV90 (CLDN6 low)” value is 87.9%; the “Min cell viability, OVCAR-3 (CLDN6 mid)” value is 0.2%; the “Min cell viability, PA-1 (CLDN6 high)” value was determined as 7.75%.
For B13 the same measures were 90.5%, 24.5% and 14.1%.
For B14 the same measures were 30.4%, 20.3% and 12.1%.
